# B1: S2C3-IgG4 (mouse-human chimeric antibody, human IgG4-kappa) (antibody, V domains shown)
# VH: QIQLQQSGPELVKPGASVKISCKASGYTFTDYYMHWVKQRPGQGLEWIGWINPSSGNTKYAQKFQDKATLTVATSSSTAYMQLSSLTSEDTAVYFCARREEDYFDYWGQGTLVTVSS
# VL: DIVMSQSPSSLAVSVGEKVTMSCKSSQSLLYPSNKKNYLTWYQQKPGQSPKLLIYWASTRESGVPDRFTGSGSGTDFTLTISSVKAEDLAVYYCQEYYAYPLSFGAGTKLEIKR
# notes: also called 人-鼠嵌合单抗S2C3
# B2: S2H2-IgG4 (mouse-human chimeric antibody, human IgG4-kappa) (antibody, V domains shown)
# VH: QVQLQQPGAEVVKPGASVKMSCKASGYTLSSYWMHWVKQRPGQGLEWIGTIDRSDSYISYNQKFKGKATLTVDTSSGTVYMQLNSLTSEDSAVYYCTRGGPYGSKMMDNWGQGTSVTVSS
# VL: DIQMNQSPSSLSASLGDTITITCHASQNINVWLSWYQQKPGNIPKLLIYKASNLHTGVPSRFSGSGSGTGFTLTISSLQPEDIATYYCQQGQSYPLTFGTGTKLELKR
# notes: also called 人-鼠嵌合单抗S2H2
# B3: S4D12-IgG4 (mouse-human chimeric antibody, human IgG4-kappa) (antibody, V domains shown)
# VH: QVQLQQPGAELVKPGASVKMSCKASGYTFTNYWMHWVKQRPGQGLEWIGVIAPSDNYTNYNQKFQGKATLTVDTSSSTAYMQLSSLTSEDSAVYYCTKGGKYSMDYWGQGTSVTVSS
# VL: DVLMTQTPLSLPVSLGDQASISCRSSQSIVHSNGNTYLEWYLQKPGQSPKLLIYKVSNRFSGVPDRFSGSGSGTDFTLKISRVEAEDLGVYYCFQGSHVPFTFGSGTKLEIKR
# notes: also called 人-鼠嵌合单抗S4D12
# B4: Hu5F9-G4 (humanized anti-CD47 monoclonal antibody) (antibody, human IgG4, V domains shown)
# VH: QVQLVQSGAEVKKPGASVKVSCKASGYTFTNYNMHWVRQAPGQRLEWMGTIYPGNDDTSYNQKFKDRVTITADTSASTAYMELSSLRSEDTAVYYCARGGYRAMDYWGQGTLVTVSS
# VL: DIVMTQSPLSLPVTPGEPASISCRSSQSIVYSNGNTYLGWYLQKPGQSPQLLIYKVSNRFSGVPDRFSGSGSGTDFTLKISRVEAEDVGVYYCFQGSHVPYTFGQGTKLEIK
# notes: Prepared after US 9017675B2; labelled IgG4; also called Hu5F9-IgG4; hu5F9-IgG4
# B5: S2H2 (mouse scFv clone displayed on phage) (scFv)
# scFv: QVQLQQPGAEVVKPGASVKMSCKASGYTLSSYWMHWVKQRPGQGLEWIGTIDRSDSYISYNQKFKGKATLTVDTSSGTVYMQLNSLTSEDSAVYYCTRGGPYGSKMMDNWGQGTSVTVSSGGGGSGGGGSGGGGSDIQMNQSPSSLSASLGDTITITCHASQNINVWLSWYQQKPGNIPKLLIYKASNLHTGVPSRFSGSGSGTGFTLTISSLQPEDIATYYCQQGQSYPLTFGTGTKLELK
# notes: also called 鼠单链抗体S2H2; 鼠单抗S2H2
# B6: H11E5+L25B8 (affinity-matured variant of hS2C3) (antibody, V domains shown)
# VH: QVQLVQSGAEVKKPGASVKVSCKASGYTFTDYYMHWVRQAPGQRLEWMGWIYPSSGNTKYAQKFKDRVTMTRDTSTSTVYMELSSLRSEDTAVYYCARREEDYFDYWGQGTLVTVSS
# VL: DIVMTQSPDSLAVSLGERATINCKSSQSLLYSSNKKNYLTWYQQKPGQPPKLLIYWASTRESGVPDRFSGSGSGTDFTLTISSLQAEDVAVYYCQQFYAYPISFGQGTKLEIK
# notes: Humanized monoclonal antibody
# B7: H10C7+L25B8 (affinity-matured variant of hS2C3) (antibody, V domains shown)
# VH: QVQLVQSGAEVKKPGASVKVSCKASGYTFTDYYMHWVRQAPGQRLEWMGWIYPGSGNTRYSQKFKDRVTMTRDTSTSTVYMELSSLRSEDTAVYYCARREEDYFDYWGQGTLVTVSS
# VL: DIVMTQSPDSLAVSLGERATINCKSSQSLLYSSNKKNYLTWYQQKPGQPPKLLIYWASTRESGVPDRFSGSGSGTDFTLTISSLQAEDVAVYYCQQFYAYPISFGQGTKLEIK
# notes: Humanized monoclonal antibody
# B8: hS2C3-IgG4 (humanized S2C3) (antibody, V domains shown)
# VH: QVQLVQSGAEVKKPGASVKVSCKASGYTFTDYYMHWVRQAPGQRLEWMGWINPSSGNTKYAQKFQDRVTMTRDTSTSTVYMELSSLRSEDTAVYYCARREEDYFDYWGQGTLVTVSS
# VL: DIVMTQSPDSLAVSLGERATINCKSSQSLLYPSNKKNYLTWYQQKPGQPPKLLIYWASTRESGVPDRFSGSGSGTDFTLTISSLQAEDVAVYYCQEYYAYPLSFGQGTKLEIK
# B9: hS4D12-IgG4 (humanized S4D12) (antibody, V domains shown)
# VH: QVQLVQSGAEVKKPGASVKVSCKASGYTFTNYWMHWVRQRPGQGLEWIGVIAPSDNYTNYNQKFQGRVTMTVDTSTSTVYMELSSLRSEDTAVYYCTKGGKYSMDYWGQGTTVTVSS
# VL: DIVMTQTPLSLPVTPGEPASISCRSSQSIVHSNGNTYLEWYLQKPGQSPQLLIYKVSNRFSGVPDRFSGSGSGTDFTLKISRVEAEDVGVYYCFQGSHVPFTFGQGTKLEIK
# B10: S4D12 (mouse scFv clone displayed on phage) (scFv)
# scFv: QVQLQQPGAELVKPGASVKMSCKASGYTFTNYWMHWVKQRPGQGLEWIGVIAPSDNYTNYNQKFQGKATLTVDTSSSTAYMQLSSLTSEDSAVYYCTKGGKYSMDYWGQGTSVTVSSGGGGSGGGGSGGGGSDVLMTQTPLSLPVSLGDQASISCRSSQSIVHSNGNTYLEWYLQKPGQSPKLLIYKVSNRFSGVPDRFSGSGSGTDFTLKISRVEAEDLGVYYCFQGSHVPFTFGSGTKLEIK
# notes: also called 鼠单链抗体S4D12; 鼠单抗S4D12
# B11: S2C3 (mouse scFv clone displayed on phage) (scFv)
# scFv: QIQLQQSGPELVKPGASVKISCKASGYTFTDYYMHWVKQRPGQGLEWIGWINPSSGNTKYAQKFQDKATLTVATSSSTAYMQLSSLTSEDTAVYFCARREEDYFDYWGQGTLVTVSSGGGGSGGGGSGGGGSDIVMSQSPSSLAVSVGEKVTMSCKSSQSLLYPSNKKNYLTWYQQKPGQSPKLLIYWASTRESGVPDRFTGSGSGTDFTLTISSVKAEDLAVYYCQEYYAYPLSFGAGTKLEIK
# notes: also called 鼠单链抗体S2C3; 鼠单抗S2C3
# Columns and labels:
# [1] = target: T1, hCD47-mFc (human CD47 extracellular region D1 fused to mouse IgG2a Fc) (human (homo sapiens)); assay: competition ELISA: hCD47-mFc coated, fixed hCD172a-D1M1-His as competitor, antibody titrated
# T1 construct: no linker is stated
# [2] = target: T2, huCD47-D1-his (recombinant human CD47 extracellular region D1 with C-terminal His tag) (human (homo sapiens), UniProt Q08722 19-141); assay: SPR Biacore X100, antibody captured via anti-human Fc on CM5, huCD47-D1-his as analyte, 25 C
# T2 construct: Expressed in HEK293 cells; analyte in the Biacore measurements and antigen of the phage panning; also called huCD47-his; hCD47; not shown: His tag added at the C-terminus
# [3] = target: T2, huCD47-D1-his (recombinant human CD47 …); assay: SPR BIAcore, by the method of Example 3 (antibody captured, huCD47-D1-his analyte)
# [4] = target: T1, hCD47-mFc (human CD47 extracellular …); assay: competition ELISA: hCD47-mFc coated, fixed hCD172a-D1M1-His as competitor, antibody titrated; remark: listed apart in the source
# [5] = target: T1, hCD47-mFc (human CD47 extracellular …); assay: competition ELISA by the method of Example 3 (hCD47-mFc coated, hCD172a-D1M1-His as competitor)
# [6] = target: T2, huCD47-D1-his (recombinant human CD47 …); assay: solid-phase phage panning on huCD47-D1-his, three rounds
# [7] = target: T2, huCD47-D1-his (recombinant human CD47 …); assay: SPR BIAcore, against hS2C3 as reference
# [8] = target: T1, hCD47-mFc (human CD47 extracellular …); assay: competition ELISA by the method of Example 3 (hCD47-mFc coated, hCD172a-D1M1-His as competitor); remark: listed apart in the source
# [9] = target: T1, hCD47-mFc (human CD47 extracellular …); assay: as above; remark: listed apart in the source
# [10] = target: T2, huCD47-D1-his (recombinant human CD47 …); assay: SPR BIAcore, by the method of Example 3 (antibody captured, huCD47-D1-his analyte); remark: listed apart in the source
binder,measurement,setting,value
B1,IC50,[1],2 to 5 nM
same,Kd,[2],25.1 nM
same,koff,[2],0.0222 s⁻¹
same,kon,[2],886000 M⁻¹ s⁻¹
same,Kd,[3],18.5 nM
same,koff,[3],0.0205 s⁻¹
same,kon,[3],1.11e+06 M⁻¹ s⁻¹
same,IC50,[4],5.19 nM
B2,IC50,[1],2 to 5 nM
same,Kd,[2],9.71 nM
same,koff,[2],0.00696 s⁻¹
same,kon,[2],717000 M⁻¹ s⁻¹
same,IC50,[4],2.08 nM
B3,Kd,[2],10.1 nM
same,koff,[2],0.0142 s⁻¹
same,kon,[2],1.41e+06 M⁻¹ s⁻¹
same,Kd,[3],8.56 nM
same,koff,[3],0.011 s⁻¹
same,kon,[3],1.28e+06 M⁻¹ s⁻¹
same,IC50,[4],3.89 nM
B4,IC50,[5],4.16 nM
same,IC50,[4],9.61 nM
B5,binding result,[6],binds
B6,fold improvement of affinity over hS2C3,[7],10 fold
same,IC50,[8],4.13 nM
same,IC50,[9],< 5 nM
same,Kd,[10],0.807 nM
same,koff,[10],0.00096 s⁻¹
same,kon,[10],1.19e+06 M⁻¹ s⁻¹
B7,IC50,[8],4.51 nM
same,IC50,[9],< 5 nM
same,Kd,[10],1.11 nM
same,koff,[10],0.00115 s⁻¹
same,kon,[10],1.03e+06 M⁻¹ s⁻¹
B8,IC50,[8],4.13 nM
same,IC50,[9],< 5 nM
same,Kd,[10],9.55 nM
same,koff,[10],0.0103 s⁻¹
same,kon,[10],1.08e+06 M⁻¹ s⁻¹
same,IC50,[5],3.36 nM
same,Kd,[3],10.1 nM
same,koff,[3],0.011 s⁻¹
same,kon,[3],1.09e+06 M⁻¹ s⁻¹
B9,IC50,[9],< 5 nM
same,IC50,[5],2.68 nM
same,Kd,[3],9.6 nM
same,koff,[3],0.0118 s⁻¹
same,kon,[3],1.22e+06 M⁻¹ s⁻¹
B10,binding result,[6],binds
B11,binding result,[6],binds
